Reference: article PMC5120866 (Cancer research, 2016)

Molecular target: Integrin β3 (human (endogenous in ovarian cancer …, UniProt P05106 27-788))
Test: co-IP

Chain of Integrin β3 (human (P05106 27-788): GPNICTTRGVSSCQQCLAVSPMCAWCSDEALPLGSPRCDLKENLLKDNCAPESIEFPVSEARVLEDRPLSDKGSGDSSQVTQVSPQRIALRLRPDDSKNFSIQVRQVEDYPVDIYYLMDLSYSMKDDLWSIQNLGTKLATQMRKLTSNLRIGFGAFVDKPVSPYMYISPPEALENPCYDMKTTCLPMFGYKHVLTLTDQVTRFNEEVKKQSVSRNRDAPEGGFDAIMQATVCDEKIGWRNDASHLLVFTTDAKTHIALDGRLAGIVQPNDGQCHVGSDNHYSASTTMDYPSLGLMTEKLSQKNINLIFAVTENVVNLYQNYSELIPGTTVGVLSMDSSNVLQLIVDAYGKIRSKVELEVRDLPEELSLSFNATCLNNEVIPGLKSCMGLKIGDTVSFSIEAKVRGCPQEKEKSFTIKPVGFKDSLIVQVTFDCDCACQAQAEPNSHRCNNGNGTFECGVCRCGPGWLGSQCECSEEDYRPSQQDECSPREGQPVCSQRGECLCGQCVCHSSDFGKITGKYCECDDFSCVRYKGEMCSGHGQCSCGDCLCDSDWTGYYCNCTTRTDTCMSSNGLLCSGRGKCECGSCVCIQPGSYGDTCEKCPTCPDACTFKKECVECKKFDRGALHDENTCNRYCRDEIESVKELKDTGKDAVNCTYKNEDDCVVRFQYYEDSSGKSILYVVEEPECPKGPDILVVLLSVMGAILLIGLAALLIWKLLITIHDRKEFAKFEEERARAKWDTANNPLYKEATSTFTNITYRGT

B1: EGFL6 (wild-type, FLAG-EGFL6) (ligand, human, UniProt Q8IUX8-1 22-553, looked up)
chain: NAASARHHGLLASARQPGVCHYGTKLACCYGWRRNSKGVCEATCEPGCKFGECVGPNKCRCFPGYTGKTCSQDVNECGMKPRPCQHRCVNTHGSYKCFCLSGHMLMPDATCVNSRTCAMINCQYSCEDTEEGPQCLCPSSGLRLAPNGRDCLDIDECASGKVICPYNRRCVNTFGSYYCKCHIGFELQYISGRYDCIDINECTMDSHTCSHHANCFNTQGSFKCKCKQGYKGNGLRCSAIPENSVKEVLRAPGTIKDRIKKLLAHKNSMKKKAKIKNVTPEPTRTPTPKVNLQPFNYEEIVSRGGNSHGGKKGNEEKMKEGLEDEKREEKALKNDIEERSLRGDVFFPKVNEAGEFGLILVQRKALTSKLEHKDLNISVDCSFNHGICDWKQDREDDFDWNPADRDNAIGFYMAVPALAGHKKDIGRLKLLLPDLQPQSNFCLLFDYRLAGDKVGKLRVFVKNSNNALAWEKTTSEDEKWKTGKIQLYQGTDATKSIIFEAERGKGKTGEIAVDGVLLVSGLCPDSLLSVDD
fold co-immunoprecipitation against EGFL6^RGE: 4.6 fold
